# Laboratory results from the FLAb antibody collection (doi:10.7554/elife.23156).
# B1: scFv; the commonest letter at each place (parent)
# chain 1: EVKLDETGGGLVQPGRPMKLSCVASGFTFSDYWMNWVRQSPEKGLEWVAQIRNKPYNYETYYSDSVKGRFTISRDDSKSSVYLQMNNLRVEDMGIYYCTGSYYGMDYWGQGTSVTVS
# chain 2: DVVMTQTPLSLPVSLGDQASISCRSSQSLVHSNGNTYLRWYLQKPGQSPKVLIYKVSNRFSGVPDRFSGSGSGTDFTLKISRVEAEDLGVYFCSQSTHVPWTFGGGTKLEIK
# Columns and labels:
# [1] = variants of: B1; assay: Kd (Tite-Seq); conditions: with fluorescein; format: scFv 4-4-20, heavy + light
# [2] = variants of: B1; assay: yeast surface expression (ratio to wild type); higher = more expressed; conditions: format: scFv 4-4-20, heavy + light
Variant,Kd [1],yeast surface expression [2]
chain 1 T28I D31F,1.66 nM,0.526
chain 1 T28I D31H,1.28 nM,0.699
chain 1 T28I F29L,31.8 nM,0.851
chain 1 T28I F29R,≥ 10000 nM,0.695
chain 1 T28I N35R,≥ 10000 nM,0.849
chain 1 T28I S30M,1.04 nM,0.769
chain 1 T28I W33K,≥ 10000 nM,0.617
chain 1 T28I W36A,≥ 10000 nM,0.354
chain 1 T28I Y32C,2230 nM,0.946
chain 1 T28I Y32S,2230 nM,0.842
chain 1 T28I Y32T,≥ 10000 nM,0.869
chain 1 T28K,0.988 nM,1.07
chain 1 T28K D31I,≥ 10000 nM,0.645
chain 1 T28K F29C,37.2 nM,0.906
chain 1 T28K F29Y,0.504 nM,0.984
chain 1 T28K M34K,6960 nM,0.284
chain 1 T28K M34V,1.22 nM,0.867
chain 1 T28K N35M V37L,≥ 10000 nM,0.642
chain 1 T28K S30H,1.42 nM,0.814
chain 1 T28K S30I,1.35 nM,0.889
chain 1 T28K S30K M34Y,5.75 nM,0.855
chain 1 T28K V37L,143 nM,1.01
chain 1 T28K V37R,195 nM,2.19

Variant,Kd [1],yeast surface expression [2]
chain 1 T28K W33D,≥ 10000 nM,0.981
chain 1 T28K W33M,≥ 10000 nM,1.03
chain 1 T28K W33S,≥ 10000 nM,0.995
chain 1 T28K W36R,50.7 nM,0.393
chain 1 T28K Y32V,≥ 10000 nM,0.858
chain 1 T28L,1.66 nM,0.955
chain 1 T28L D31G,1.28 nM,0.717
chain 1 T28L D31L,22.1 nM,0.425
chain 1 T28L F29N,≥ 10000 nM,0.821
chain 1 T28L M34D,≥ 10000 nM,0.101
chain 1 T28L N35D W36N,≥ 10000 nM,0.674
chain 1 T28L S30A,1.75 nM,1.11
chain 1 T28L S30C,1.58 nM,0.839
chain 1 T28L S30N,1.22 nM,0.861
chain 1 T28L S30R,0.891 nM,0.99
chain 1 T28L S30Y,1.84 nM,0.738
chain 1 T28L V37Q,10.2 nM,0.731
chain 1 T28L W33S,≥ 10000 nM,0.867
chain 1 T28L W33Y,≥ 10000 nM,0.826
chain 1 T28L W36A,≥ 10000 nM,0.508
chain 1 T28M,2.65 nM,1.02
chain 1 T28M D31I W33Y,≥ 10000 nM,0.462
chain 1 T28M M34C,35.3 nM,0.719

Variant,Kd [1],yeast surface expression [2]
chain 1 T28M M34N,403 nM,0.566
chain 1 T28M S30A W36F,1.58 nM,0.845
chain 1 T28M S30L,10.7 nM,0.725
chain 1 T28M S30W,7.08 nM,0.645
chain 1 T28M V37G,≥ 10000 nM,0.468
chain 1 T28M V37K,≥ 10000 nM,0.399
chain 1 T28M Y32W,≥ 10000 nM,0.903
chain 1 T28N,1.21 nM,0.895
chain 1 T28N D31C,4.68 nM,0.826
chain 1 T28N D31I Y32R,≥ 10000 nM,0.627
chain 1 T28N F29R,≥ 10000 nM,0.996
chain 1 T28N M34E V37L,≥ 10000 nM,0.571
chain 1 T28N N35T,≥ 10000 nM,0.93
chain 1 T28N N35V,≥ 10000 nM,0.666
chain 1 T28N V37A,72.9 nM,0.941
chain 1 T28N V37Y,≥ 10000 nM,1.05
chain 1 T28N W33M,≥ 10000 nM,1.01
chain 1 T28N W33Y,≥ 10000 nM,1
chain 1 T28N W36K,≥ 10000 nM,0.56
chain 1 T28N Y32G,345 nM,1.19
chain 1 T28N Y32Q,≥ 10000 nM,1.04
chain 1 T28P,0.743 nM,0.989
chain 1 T28P D31S,1.15 nM,1.07

Variant,Kd [1],yeast surface expression [2]
chain 1 T28P F29V,7.08 nM,0.927
chain 1 T28P M34S,15.4 nM,0.95
chain 1 T28P S30G,0.804 nM,1.25
chain 1 T28P S30K,≤ 0.316 nM,1.02
chain 1 T28P S30N,0.989 nM,1.1
chain 1 T28P V37P,≥ 10000 nM,1.08
chain 1 T28P V37S,0.939 nM,0.884
chain 1 T28P W36P,≥ 10000 nM,0.295
chain 1 T28P W36Y,4.22 nM,1.05
chain 1 T28P Y32C,6.72 nM,0.967
chain 1 T28P Y32D W36I,≥ 10000 nM,0.789
chain 1 T28P Y32R,5660 nM,1.09
chain 1 T28Q,0.763 nM,1.06
chain 1 T28Q D31A,5.75 nM,0.845
chain 1 T28Q F29Q V37S,62.4 nM,0.421
chain 1 T28Q M34P,≥ 10000 nM,0.676
chain 1 T28Q N35P,832 nM,0.622
chain 1 T28Q N35R,≥ 10000 nM,0.537
chain 1 T28Q V37F,21 nM,1.1
chain 1 T28Q V37L,3550 nM,0.864
chain 1 T28Q W33V,≥ 10000 nM,1.34
chain 1 T28Q Y32S,89.6 nM,0.926
chain 1 T28R,1.38 nM,0.917

Variant,Kd [1],yeast surface expression [2]
chain 1 T28R D31K,3.25 nM,0.833
chain 1 T28R D31L W33I,≥ 10000 nM,0.441
chain 1 T28R N35G,16.2 nM,1.03
chain 1 T28R S30F,≤ 0.316 nM,0.739
chain 1 T28R S30L D31S,≥ 10000 nM,0.198
chain 1 T28R V37P,≥ 10000 nM,1.99
chain 1 T28R W33G,≥ 10000 nM,0.684
chain 1 T28R W33L,≥ 10000 nM,0.935
chain 1 T28R W36S,≥ 10000 nM,0.272
chain 1 T28R Y32G,13.2 nM,0.959
chain 1 T28R Y32H,25.9 nM,1
chain 1 T28S,3.25 nM,0.985
chain 1 T28S D31C,76.7 nM,0.771
chain 1 T28S F29A,62.4 nM,0.957
chain 1 T28S F29Q,6.38 nM,0.969
chain 1 T28S F29S,26.9 nM,1.17
chain 1 T28S M34N,≥ 10000 nM,0.645
chain 1 T28S M34R,≥ 10000 nM,1.99
chain 1 T28S S30I,7.08 nM,0.741
chain 1 T28S S30M,1.75 nM,0.95
chain 1 T28S S30R,2.65 nM,0.787
chain 1 T28S S30T W33R,≥ 10000 nM,0.708
chain 1 T28S V37Q,1.84 nM,0.71
